Results published in the supplement of paper PMC10567573.

B1: FAM189A2 (parent)
chain: CALNALTTTVCLVAAALRYLQIFA

Variants of: B1
Assay: protein stability index of a GFP-peptide fusion (GPS, HEK-293T) (PSI 1-6); higher = more stable
Details: c terminus: a fixed tail appended
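Note: lentivirally expressed fusions sorted by FACS into six bins by GFP to DsRed ratio, PSI derived from sequencing read proportions per bin multiplied by bin number.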

Protein stability index of substitutions, site by site:
F23: Y 2.85, H 4.92, G 4.67, N 4.28, L 3.45, R 3.81, S 3.01, D 2.47, P 3.42, M 4.05, V 4.08
N4: A 1.84, P 2.66, K 2.35, S 3.62, R 3.01, C 2.79, I 2.87, H 3.53
V13: W 3.96, Q 2.8, T 3, D 2.59, E 3.61
Y19: P 2.86, F 3.29, V 1.9, L 3.58, R 2.4, N 3.25, C 3.41, I 3.74
R18: E 3.6, N 3.9, P 1.82, T 2.38, I 3.84, V 3.16, D 3.02, M 1.38, K 3.85
L3: W 1.62, I 1.61, D 3.27, S 2, C 4.07
A14: W 1.93, I 3.7, G 2.74, N 3.17, C 4.5, H 4.41, K 2.69, M 3.17
L17: G 3.97, C 3.24, V 1.38, T 2.14, W 3.15
L20: F 2.75, T 3.88, I 2.76
A2: K 3.83, T 4.22, F 4.07, N 3.43, D 4.37
C11: Y 3.58, R 3.69, K 3.55, M 2.97, D 2.75, S 2.18, T 2.74, L 3.18
T7: D 2.18, F 2.06, A 3.07, M 4.03, G 2.78, K 1.87
A24: G 4.19, T 3.23, H 3.64, W 2.96, P 2.09
T9: D 2.65, Y 2.69, L 2.69, A 3.62, V 3.39, S 3.11
A16: S 2.97, E 3.27, N 2.1, D 3.52, V 3.33, K 4.22, F 2.55, P 2.79, C 4.04, H 3.78, R 3.06
Q21: S 1.64, N 2.02, K 2.07, E 3.35, C 2.75, V 2.12
V10: W 2.05, G 4.6, N 2.53, M 1.98, S 4.12
L6: Q 2.83, P 3.83, M 4.19, A 2.83, W 3.2, D 3.49, G 4.13, T 2.87
A15: D 3.14, N 3.15, R 2.41, T 1.8, W 2.59, L 2.19
I22: M 3.76, K 2.14, S 3.43, F 2.44, R 2.16, P 4.03, Y 2.44, W 3.83, N 2.58, Q 2.9
T8: C 2.95, F 3.49, S 2.63, H 2.94, R 2.69, M 2.93, E 4.29, A 3.34
A5: F 2.29, E 3.02, V 1.92, S 3.5, C 3.07
L12: R 2.39, C 2.39, M 3.44, F 2.56, T 2.96, G 3.05
C1: D 2.46, T 3.21, R 3.14, A 2.05, G 2.6, H 2.7, N 3.61, I 2.86, F 4.75, K 3.08
